Variants at the floor of the assay were thinned out.
B1: TPR 5TU (parent)
chain: GGAUCUUCUCGAUCUAACAAAAAAGACAAAUCUGCCACAAAGCUUGAGAGCAUCUUCGGAUGCAGAGGCGGCAGCCUUCGGUGGCGCGAUAGCGCCAACGUUCUCAACUAUGACACGCAAAACGCGUGCUCCGUUGAAUGGAGUUUAUCAUG

Variants of: B1
Test: polymerase ribozyme fitness, log enrichment relative to wild type (log ratio); higher = more active; in vitro selection for triplet polymerase activity
How it was run: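 One round of in vitro selection, in triplicate, was applied to PCR-built, transcribed mutant libraries of each subunit of a heterodimeric triplet polymerase ribozyme. The steps were annealing with a biotinylated primer, partner subunit and triplets, incubation frozen at −7 °C, gel excision of extended constructs, streptavidin-bead capture and RT-PCR. Fitness is the logarithm, base 2, of genotype enrichment over wild-type enrichment from inverse-variance-weighted replicate averages of Illumina-sequenced inputs and outputs, keeping genotypes with ≥10 input reads and ≥1 read per output.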

| Variant | polymerase ribozyme fitness (log ratio) |
| --- | --- |
| GGAUCUUCUCGAUCUAACAAAAAAGACAAAUCUGCCACAAAGCUUGAGAGCAUCUUCGGAUGCAGAGGCGGCAGCCUUCGGUGGCGCGAUAGCGCCAACGUUCUCAACUAUGACACGCUAAACGCGUGUUCCGUUGAAUGGAGUUUAUCAUG [A119U C129U] | 0.265 |
| GGAUCUUCUCGAUCUAACAAAAAAGACAAAUCUGCCACAAAGCUUGAGAGCAUCUUCGGAUGCAGAGGCGGCAGCCUUCGGUGGCGCGAUAGCGCCAACGUUCUCAACUAUGACACGCAGAACGCGUGCUCCGUUGAAUGAAGUUUAUCAUG [A120G G141A] | 1.23 |
| GGAUCUUCUCGAUCUAACAAAAAAGACAAAUCUGCCACAAAGCUUGAGAGCAUCUUCGGAUGCAGAGGCGGCAGCCUUCGGUGGCGCGAUAGCGCCAACGUUCUCAACUAUGACACGCAAUACGCGUGCUCUGUUGAAUGGAGUUAAUCAUG [A121U C132U U146A] | -0.968 |
| GGAUCUUCUCGAUCUAACAAAAAAGACAAAUCUGCCACAAAGCUUGAGAGCAUCUUCGGAUGCAGAGGCGGCAGCCUUCGGUGGCGCGAUAGCGCCAACGUUCUCAACUAUGACACGCAAUACGCGUGCUCCGUUGAAUGGAGUCUAUCAUG [A121U U145C] | 1.15 |
| GGAUCUUCUCGAUCUAACAAAAAAGACAAAUCUGCCACAAAGCUUGAGAGCAUCUUCGGAUGCAGAGGCGGCAGCCUUCGGUGGCGCGAUAGCGCCAACGUUCUCAACUAUGACACGCAUAACGCGUGCUCCGUUGAAUGGAGUCUAUCAUG [A120U U145C] | -0.0409 |
| GGAUCUUCUCGAUCUAACAAAAAAGACAAAUCUGCCACAAAGCUUGAGAGCAUCUUCGGAUGCAGAGGCGGCAGCCUUCGGUGGCGCGAUAGCGCCAACGUUCUCAACUAUGACACGCAGAACGCGUUCUCCGUUGAAUGGAGUUUAUCAUG [A120G G128U] | -2.36 |
| GGAUCUUCUCGAUCUAACAAAAAAGACAAAUCUGCCACAAAGCUUGAGAGCAUCUUCGGAUGCAGAGGCGGCAGCCUUCGGUGGCGCGAUAGCGCCAACGUUCUCAACUAUGACACGCAAAGCGCGAACUCCGUUGAAUGGAGUUUAUCAUG [A122G U127A G128A] | -4.01 |
| GGAUCUUCUCGAUCUAACAAAAAAGACAAAUCUGCCACAAAGCUUGAGAGCAUCUUCGGAUGCAGAGGCGGCAGCCUUCGGUGGCGCGAUAGCGCCAACGUUCUCAACUAUGACACGCAUUACGCGUGCUCCGUUGAAUGGAGGUUAUGAUG [A120U A121U U144G C149G] | -3.46 |
| GGAUCUUCUCGAUCUAACAAAAAAGACAAAUCUGCCACAAAGCUUGAGAGCAUCUUCGGAUGCAGAGGCGGCAGCCUUCGGUGGCGCGAUAGCGCCAACGUUCUCAACUAUGACACGCAAGACGCGUGCUCCGGUGAAUGGAGUUUAUCAUG [A121G U134G] | -2.56 |
| GGAUCUUCUCGAUCUAACAAAAAAGACAAAUCUGCCACAAAGCUUGAGAGCAUCUUCGGAUGCAGAGGCGGCAGCCUUCGGUGGCGCGAUAGCGCCAACGUUCUCAACUAUGACACGCGAAACGCGUGCUCCGUUGAAUGGAGUUUAUCAUG [A119G] | -0.045 |
| GGAUCUUCUCGAUCUAACAAAAAAGACAAAUCUGCCACAAAGCUUGAGAGCAUCUUCGGAUGCAGAGGCGGCAGCCUUCGGUGGCGCGAUAGCGCCAACGUUCUCAACUAUGACACGCUAAACGCGUGCUCCGUUGAAUGGAGUUUAUCAUG [A119U] | -0.546 |
| GGAUCUUCUCGAUCUAACAAAAAAGACAAAUCUGCCACAAAGCUUGAGAGCAUCUUCGGAUGCAGAGGCGGCAGCCUUCGGUGGCGCGAUAGCGCCAACGUUCUCAACUAUGACACGCCAAACGCGUGCUCCGUUGAAUGGAGUUUAUCAUG [A119C] | -0.385 |
| GGAUCUUCUCGAUCUAACAAAAAAGACAAAUCUGCCACAAAGCUUGAGAGCAUCUUCGGAUGCAGAGGCGGCAGCCUUCGGUGGCGCGAUAGCGCCAACGUUCUCAACUAUGACACGCAAAUCGCGUGCUCCGUCGGAUGGAGUUUAUCAUG [A122U U135C A137G] | -3.91 |
| GGAUCUUCUCGAUCUAACAAAAAAGACAAAUCUGCCACAAAGCUUGAGAGCAUCUUCGGAUGCAGAGGCGGCAGCCUUCGGUGGCGCGAUAGCGCCAACGUUCUCAACUAUGACACGCAAACCGCGUGCUCCGUUGAAUGGAGUUUAUUAUG [A122C C149U] | -1.16 |
| GGAUCUUCUCGAUCUAACAAAAAAGACAAAUCUGCCACAAAGCUUGAGAGCAUCUUCGGAUGCAGAGGCGGCAGCCUUCGGUGGCGCGAUAGCGCCAACGUUCUCAACUAUGACACGCAGAACGCGUGCUCCGUUGCAUGGAGUUUAUCAUG [A120G A137C] | -4.08 |
| GGAUCUUCUCGAUCUAACAAAAAAGACAAAUCUGCCACAAAGCUUGAGAGCAUCUUCGGAUGCAGAGGCGGCAGCCUUCGGUGGCGCGAUAGCGCCAACGUUCUCAACUAUGACACGCGAAACGCGUGCUCCGUUGAAUGGAGUUAAUCAUG [A119G U146A] | -0.399 |
| GGAUCUUCUCGAUCUAACAAAAAAGACAAAUCUGCCACAAAGCUUGAGAGCAUCUUCGGAUGCAGAGGCGGCAGCCUUCGGUGGCGCGAUAGCGCCAACGUUCUCAACUAUGACACGCAACACGCGUCCUCCGUUGAAUGGAGUUUAUCAUG [A121C G128C] | -2.44 |
| GGAUCUUCUCGAUCUAACAAAAAAGACAAAUCUGCCACAAAGCUUGAGAGCAUCUUCGGAUGCAGAGGCGGCAGCCUUCGGUGGCGCGAUAGCGCCAACGUUCUCAACUAUGACACGCACAACGGGUGCUCCUUUGAAUGGAGUUUAUCAUG [A120C C125G G133U] | -3.85 |
| GGAUCUUCUCGAUCUAACAAAAAAGACAAAUCUGCCACAAAGCUUGAGAGCAUCUUCGGAUGCAGAGGCGGCAGCCUUCGGUGGCGCGAUAGCGCCAACGUUCUCAACUAUGACACGCAAACCGCAUGCUCCGUUGAAUGGAGUUUAUCAUG [A122C G126A] | -0.186 |

| Variant | polymerase ribozyme fitness (log ratio) |
| --- | --- |
| GGAUCUUCUCGAUCUAACAAAAAAGACAAAUCUGCCACAAAGCUUGAGAGCAUCUUCGGAUGCAGAGGCGGCAGCCUUCGGUGGCGCGAUAGCGCCAACGUUCUCAACUAUGACACGCAAUACGUGUGCUCCGUUGAAUGGACUUCAUCAUG [A121U C125U G143C U146C] | -3.38 |
| GGAUCUUCUCGAUCUAACAAAAAAGACAAAUCUGCCACAAAGCUUGAGAGCAUCUUCGGAUGCAGAGGCGGCAGCCUUCGGUGGCGCGAUAGCGCCAACGUUCUCAACUAUGACACGCCAAACGCGUGCUCCGUUGAACGGAGUUUAUCAUG [A119C U139C] | -3.46 |
| GGAUCUUCUCGAUCUAACAAAAAAGACAAAUCUGCCACAAAGCUUGAGAGCAUCUUCGGAUGCAGAGGCGGCAGCCUUCGGUGGCGCGAUAGCGCCAACGUUCUCAACUAUGACACGCAAAUCGCGUGCUCCGUUGAAUGGAGUUUAUUAUG [A122U C149U] | -0.616 |
| GGAUCUUCUCGAUCUAACAAAAAAGACAAAUCUGCCACAAAGCUUGAGAGCAUCUUCGGAUGCAGAGGCGGCAGCCUUCGGUGGCGCGAUAGCGCCAACGUUCUCAACUAUGACACGCUAAACGCGUGCUCCGUUGUAUGGAGUUUAUCAUG [A119U A137U] | -4.12 |
| GGAUCUUCUCGAUCUAACAAAAAAGACAAAUCUGCCACAAAGCUUGAGAGCAUCUUCGGAUGCAGAGGCGGCAGCCUUCGGUGGCGCGAUAGCGCCAACGUUCUCAACUAUGACACGCAAAGCACGAGCUCCGUUGAAUGGAGUUUAUCAUG [A122G G124A U127A] | -3.53 |
| GGAUCUUCUCGAUCUAACAAAAAAGACAAAUCUGCCACAAAGCUUGAGAGCAUCUUCGGAUGCAGAGGCGGCAGCCUUCGGUGGCGCGAUAGCGCCAACGUUCUCAACUAUGACACGUAAAACGCGUGCUCCGUUGAAUGGAGUUUAGCAUG [C118U U148G] | -3.62 |
| GGAUCUUCUCGAUCUAACAAAAAAGACAAAUCUGCCACAAAGCUUGAGAGCAUCUUCGGAUGCAGAGGCGGCAGCCUUCGGUGGCGCGAUAGCGCCAACGUUCUCAACUAUGACACGCUAAACGCGCGCUCCGUUGAAUGGAGUUUAUCAUG [A119U U127C] | -2.06 |
| GGAUCUUCUCGAUCUAACAAAAAAGACAAAUCUGCCACAAAGCUUGAGAGCAUCUUCGGAUGCAGAGGCGGCAGCCUUCGGUGGCGCGAUAGCGCCAACGUUCUCAACUAUGACACGCAUAACGCGUGCUCCGUUGCUUGGAGUUUAUCAUG [A120U A137C A138U] | -4.19 |
| GGAUCUUCUCGAUCUAACAAAAAAGACAAAUCUGCCACAAAGCUUGAGAGCAUCUUCGGAUGCAGAGGCGGCAGCCUUCGGUGGCGCGAUAGCGCCAACGUUCUCAACUAUGACACGCAAAGCGCGUGCUCCGUUGAAUGGAGGUUAUCAUG [A122G U144G] | 0.851 |
| GGAUCUUCUCGAUCUAACAAAAAAGACAAAUCUGCCACAAAGCUUGAGAGCAUCUUCGGAUGCAGAGGCGGCAGCCUUCGGUGGCGCGAUAGCGCCAACGUUCUCAACUAUGACACGCAAAGCGAGUGCUCCGGUGAAUGGAGUUUAUCAUG [A122G C125A U134G] | -2.92 |
| GGAUCUUCUCGAUCUAACAAAAAAGACAAAUCUGCCACAAAGCUUGAGAGCAUCUUCGGAUGCAGAGGCGGCAGCCUUCGGUGGCGCGAUAGCGCCAACGUUCUCAACUAUGACACGCCAAACGCGUGCUCCGUUGAAUGGAAUUUAUCAUG [A119C G143A] | -0.422 |
| GGAUCUUCUCGAUCUAACAAAAAAGACAAAUCUGCCACAAAGCUUGAGAGCAUCUUCGGAUGCAGAGGCGGCAGCCUUCGGUGGCGCGAUAGCGCCAACGUUCUCAACUAUGACACGCAAUACGUGUGCUCCGUUGAAUGGAGUUUAUCAUG [A121U C125U] | -0.154 |
| GGAUCUUCUCGAUCUAACAAAAAAGACAAAUCUGCCACAAAGCUUGAGAGCAUCUUCGGAUGCAGAGGCGGCAGCCUUCGGUGGCGCGAUAGCGCCAACGUUCUCAACUAUGACACGCACAACGCGUGCUCCGUUUAAUCGAGUUUAUCAUG [A120C G136U G140C] | -4.19 |
| GGAUCUUCUCGAUCUAACAAAAAAGACAAAUCUGCCACAAAGCUUGAGAGCAUCUUCGGAUGCAGAGGCGGCAGCCUUCGGUGGCGCGAUAGCGCCAACGUUCUCAACUAUGACACGCAAAGCGCGUGCUCCGUUGAGUGGAGUUUAUUAUG [A122G A138G C149U] | -4 |
| GGAUCUUCUCGAUCUAACAAAAAAGACAAAUCUGCCACAAAGCUUGAGAGCAUCUUCGGAUGCAGAGGCGGCAGCCUUCGGUGGCGCGAUAGCGCCAACGUUCUCAACUAUGACACGCAGAACGCGUGCUCCGUUGAAUGCAGUUUUUCAUG [A120G G141C A147U] | -1.01 |
| GGAUCUUCUCGAUCUAACAAAAAAGACAAAUCUGCCACAAAGCUUGAGAGCAUCUUCGGAUGCAGAGGCGGCAGCCUUCGGUGGCGCGAUAGCGCCAACGUUCUCAACUAUGACACGCUAAACGCGUGCUCCGUUGAAUGGAGAUUAUCAUG [A119U U144A] | -0.171 |
| GGAUCUUCUCGAUCUAACAAAAAAGACAAAUCUGCCACAAAGCUUGAGAGCAUCUUCGGAUGCAGAGGCGGCAGCCUUCGGUGGCGCGAUAGCGCCAACGUUCUCAACUAUGACACGCAAAGCGCGUGCUCCUUUGAAUGGAGUUUAUCAUG [A122G G133U] | -3.59 |
| GGAUCUUCUCGAUCUAACAAAAAAGACAAAUCUGCCACAAAGCUUGAGAGCAUCUUCGGAUGCAGAGGCGGCAGCCUUCGGUGGCGCGAUAGCGCCAACGUUCUCAACUAUGACACGCAACACGUGUGCUCCGUUGAAUGGAUUUUAUCAUG [A121C C125U G143U] | -2.41 |
| GGAUCUUCUCGAUCUAACAAAAAAGACAAAUCUGCCACAAAGCUUGAGAGCAUCUUCGGAUGCAGAGGCGGCAGCCUUCGGUGGCGCGAUAGCGCCAACGUUCUCAACUAUGACACGCAAAUCGCGUGCUCCGUUGAAUGCAGUUUAUCAUG [A122U G141C] | 0.115 |

— the RNAGym collection of RNA variant scans (doi:10.1073/pnas.2313332121)
